Experiments:
[1] = system: AncSZ; test: phosphorylation enrichment, bacterial display (enrichment ratio); higher = better substrate or ligand; peptides without Tyr show the background
[2] = target: EPHB1 (UniProt P54762); test: as above
[3] = target: EPHB2 (UniProt P29323); test: as above
[4] = target: FGFR1 (UniProt P11362); test: as above
[5] = target: FGFR3 (UniProt P22607); test: as above
[6] = system: Fer (mouse); test: as above
[7] = target: Fes (UniProt P07332); test: as above
[8] = target: Fyn (UniProt P06241); test: as above
[9] = target: Hck (UniProt P08631); test: as above
[10] = target: Jak2 (UniProt O60674); test: as above
Jak2, sequence (O60674 whole entry, looked up): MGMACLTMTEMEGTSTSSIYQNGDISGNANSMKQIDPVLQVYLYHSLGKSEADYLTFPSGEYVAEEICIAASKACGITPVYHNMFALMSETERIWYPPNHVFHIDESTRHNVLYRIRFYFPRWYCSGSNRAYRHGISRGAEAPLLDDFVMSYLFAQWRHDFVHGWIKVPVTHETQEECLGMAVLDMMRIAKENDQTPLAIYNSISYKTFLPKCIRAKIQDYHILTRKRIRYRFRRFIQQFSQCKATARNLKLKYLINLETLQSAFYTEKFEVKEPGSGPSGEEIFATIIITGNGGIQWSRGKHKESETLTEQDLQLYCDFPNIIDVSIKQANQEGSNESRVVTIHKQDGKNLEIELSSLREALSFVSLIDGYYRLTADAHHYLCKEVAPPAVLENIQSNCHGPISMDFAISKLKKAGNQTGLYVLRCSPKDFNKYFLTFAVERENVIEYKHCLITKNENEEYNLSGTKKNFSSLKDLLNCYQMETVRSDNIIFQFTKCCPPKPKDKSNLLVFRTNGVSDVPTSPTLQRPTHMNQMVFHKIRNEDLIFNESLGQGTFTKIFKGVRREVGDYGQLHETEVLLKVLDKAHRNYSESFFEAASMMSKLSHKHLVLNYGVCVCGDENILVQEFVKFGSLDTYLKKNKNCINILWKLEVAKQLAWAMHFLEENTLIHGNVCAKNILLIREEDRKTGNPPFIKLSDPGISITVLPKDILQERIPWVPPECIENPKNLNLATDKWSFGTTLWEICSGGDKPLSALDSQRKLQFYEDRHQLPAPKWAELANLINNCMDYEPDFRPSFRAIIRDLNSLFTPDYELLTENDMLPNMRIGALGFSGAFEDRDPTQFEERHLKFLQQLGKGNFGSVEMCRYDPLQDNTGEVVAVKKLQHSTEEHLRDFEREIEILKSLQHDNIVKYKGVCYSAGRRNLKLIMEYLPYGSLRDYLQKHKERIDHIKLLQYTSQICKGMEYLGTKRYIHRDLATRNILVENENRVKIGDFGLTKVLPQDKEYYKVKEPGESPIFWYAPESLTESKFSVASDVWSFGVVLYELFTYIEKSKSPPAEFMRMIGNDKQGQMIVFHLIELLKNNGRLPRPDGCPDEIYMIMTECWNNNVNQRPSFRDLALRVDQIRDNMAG

[11] = target: MERTK (UniProt Q12866); test: as above
MERTK, sequence (Q12866 whole entry, looked up): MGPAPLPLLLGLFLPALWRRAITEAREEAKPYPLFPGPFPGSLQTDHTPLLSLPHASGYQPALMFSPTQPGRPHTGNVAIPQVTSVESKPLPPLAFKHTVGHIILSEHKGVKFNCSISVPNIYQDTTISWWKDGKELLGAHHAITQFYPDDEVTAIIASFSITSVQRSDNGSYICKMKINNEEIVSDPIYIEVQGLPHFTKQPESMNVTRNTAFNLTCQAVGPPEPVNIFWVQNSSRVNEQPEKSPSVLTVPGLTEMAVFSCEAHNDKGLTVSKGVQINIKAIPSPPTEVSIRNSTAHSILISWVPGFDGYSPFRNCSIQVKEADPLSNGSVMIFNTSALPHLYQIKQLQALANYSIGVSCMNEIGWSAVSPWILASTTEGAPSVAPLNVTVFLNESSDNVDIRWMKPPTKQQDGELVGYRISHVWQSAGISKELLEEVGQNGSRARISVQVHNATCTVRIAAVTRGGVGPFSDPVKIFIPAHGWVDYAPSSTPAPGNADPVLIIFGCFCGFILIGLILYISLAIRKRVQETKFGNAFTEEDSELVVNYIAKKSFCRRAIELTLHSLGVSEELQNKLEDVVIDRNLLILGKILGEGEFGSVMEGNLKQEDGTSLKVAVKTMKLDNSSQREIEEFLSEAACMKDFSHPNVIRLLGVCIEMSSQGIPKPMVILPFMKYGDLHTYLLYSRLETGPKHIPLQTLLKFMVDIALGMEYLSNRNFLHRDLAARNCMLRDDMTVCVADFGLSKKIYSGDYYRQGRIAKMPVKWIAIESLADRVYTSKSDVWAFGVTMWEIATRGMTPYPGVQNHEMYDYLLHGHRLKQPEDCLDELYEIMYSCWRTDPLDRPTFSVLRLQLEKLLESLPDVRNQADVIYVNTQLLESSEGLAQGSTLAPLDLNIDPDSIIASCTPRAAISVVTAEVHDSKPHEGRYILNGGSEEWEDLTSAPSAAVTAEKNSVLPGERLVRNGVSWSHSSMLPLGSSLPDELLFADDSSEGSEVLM

[12] = system: c-Abl (mouse); test: as above
[13] = system: c-Src; test: as above
[14] = target: Grb2 SH2 (UniProt P62993); test: SH2 binding enrichment of the phosphorylated peptide, bacterial display (enrichment ratio); higher = better substrate or ligand; peptides without Tyr show the background
Grb2 SH2, sequence (P62993 whole entry, looked up): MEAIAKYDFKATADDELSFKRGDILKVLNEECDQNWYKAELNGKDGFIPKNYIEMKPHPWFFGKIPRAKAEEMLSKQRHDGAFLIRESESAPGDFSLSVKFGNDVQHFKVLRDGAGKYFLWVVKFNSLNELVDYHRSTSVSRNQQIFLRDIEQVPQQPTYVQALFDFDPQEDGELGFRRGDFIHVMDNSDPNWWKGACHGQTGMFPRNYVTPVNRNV

[15] = target: SHP2-C SH2; test: as above
[16] = target: c-Src SH2; test: as above
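Throughout, for SH2 binding enrichment of the phosphorylated peptide, bacterial display: peptide library displayed on the E. coli surface as eCPX fusions, selected cells deep-sequenced, score is each peptide's frequency after selection divided by its frequency in the input.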
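Throughout, for phosphorylation enrichment, bacterial display: 11-residue human phosphosite peptides and single-mutation variants displayed on the E. coli surface, counted by deep sequencing, each peptide's frequency after selection divided by its frequency in the unselected input library; frequency after pTyr selection over input frequency; kinase dosed for 20-30% of maximal phosphorylation in three min.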

FGFR3, sequence (P22607 whole entry, looked up): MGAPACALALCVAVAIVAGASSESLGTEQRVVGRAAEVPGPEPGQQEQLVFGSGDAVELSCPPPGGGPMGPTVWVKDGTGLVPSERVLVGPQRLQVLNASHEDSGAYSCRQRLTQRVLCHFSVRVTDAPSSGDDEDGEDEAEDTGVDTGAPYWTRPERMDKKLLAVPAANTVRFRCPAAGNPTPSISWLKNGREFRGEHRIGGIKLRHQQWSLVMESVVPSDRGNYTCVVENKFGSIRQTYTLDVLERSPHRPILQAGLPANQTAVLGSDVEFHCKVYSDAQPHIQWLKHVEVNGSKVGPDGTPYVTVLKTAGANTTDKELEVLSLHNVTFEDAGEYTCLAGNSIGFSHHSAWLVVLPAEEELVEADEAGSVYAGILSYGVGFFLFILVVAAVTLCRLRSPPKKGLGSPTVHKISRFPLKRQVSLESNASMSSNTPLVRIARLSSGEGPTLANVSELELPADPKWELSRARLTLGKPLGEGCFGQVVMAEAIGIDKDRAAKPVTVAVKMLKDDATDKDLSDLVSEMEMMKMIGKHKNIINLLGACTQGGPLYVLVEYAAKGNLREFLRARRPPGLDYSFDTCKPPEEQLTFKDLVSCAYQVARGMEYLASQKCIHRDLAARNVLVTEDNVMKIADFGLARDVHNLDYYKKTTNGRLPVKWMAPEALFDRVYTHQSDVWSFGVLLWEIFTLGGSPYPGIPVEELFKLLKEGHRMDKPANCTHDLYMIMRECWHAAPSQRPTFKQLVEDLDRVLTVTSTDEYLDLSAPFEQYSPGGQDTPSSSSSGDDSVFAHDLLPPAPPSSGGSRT
FGFR1, sequence (P11362 whole entry, looked up): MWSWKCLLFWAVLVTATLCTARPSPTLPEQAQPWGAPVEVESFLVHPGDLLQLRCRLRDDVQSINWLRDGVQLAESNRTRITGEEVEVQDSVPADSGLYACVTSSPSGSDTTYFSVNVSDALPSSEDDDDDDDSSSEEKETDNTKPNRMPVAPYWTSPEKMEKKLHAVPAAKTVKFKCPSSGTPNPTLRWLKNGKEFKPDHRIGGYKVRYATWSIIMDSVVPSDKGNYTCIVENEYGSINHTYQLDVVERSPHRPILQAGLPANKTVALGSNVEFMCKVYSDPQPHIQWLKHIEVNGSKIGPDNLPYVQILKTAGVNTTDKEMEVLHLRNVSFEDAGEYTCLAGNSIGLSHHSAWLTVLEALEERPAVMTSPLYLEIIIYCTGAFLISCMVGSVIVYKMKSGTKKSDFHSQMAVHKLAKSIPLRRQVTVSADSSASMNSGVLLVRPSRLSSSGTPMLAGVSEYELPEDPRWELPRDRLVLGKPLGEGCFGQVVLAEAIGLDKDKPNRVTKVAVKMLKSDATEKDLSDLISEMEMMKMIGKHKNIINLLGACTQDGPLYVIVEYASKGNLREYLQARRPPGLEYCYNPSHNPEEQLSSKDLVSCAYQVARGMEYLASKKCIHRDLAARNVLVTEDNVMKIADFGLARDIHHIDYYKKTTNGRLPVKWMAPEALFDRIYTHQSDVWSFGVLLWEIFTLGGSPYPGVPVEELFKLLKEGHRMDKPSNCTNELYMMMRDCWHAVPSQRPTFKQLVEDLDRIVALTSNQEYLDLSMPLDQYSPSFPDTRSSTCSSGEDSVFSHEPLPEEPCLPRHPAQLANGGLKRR
EPHB1, sequence (P54762 whole entry, looked up): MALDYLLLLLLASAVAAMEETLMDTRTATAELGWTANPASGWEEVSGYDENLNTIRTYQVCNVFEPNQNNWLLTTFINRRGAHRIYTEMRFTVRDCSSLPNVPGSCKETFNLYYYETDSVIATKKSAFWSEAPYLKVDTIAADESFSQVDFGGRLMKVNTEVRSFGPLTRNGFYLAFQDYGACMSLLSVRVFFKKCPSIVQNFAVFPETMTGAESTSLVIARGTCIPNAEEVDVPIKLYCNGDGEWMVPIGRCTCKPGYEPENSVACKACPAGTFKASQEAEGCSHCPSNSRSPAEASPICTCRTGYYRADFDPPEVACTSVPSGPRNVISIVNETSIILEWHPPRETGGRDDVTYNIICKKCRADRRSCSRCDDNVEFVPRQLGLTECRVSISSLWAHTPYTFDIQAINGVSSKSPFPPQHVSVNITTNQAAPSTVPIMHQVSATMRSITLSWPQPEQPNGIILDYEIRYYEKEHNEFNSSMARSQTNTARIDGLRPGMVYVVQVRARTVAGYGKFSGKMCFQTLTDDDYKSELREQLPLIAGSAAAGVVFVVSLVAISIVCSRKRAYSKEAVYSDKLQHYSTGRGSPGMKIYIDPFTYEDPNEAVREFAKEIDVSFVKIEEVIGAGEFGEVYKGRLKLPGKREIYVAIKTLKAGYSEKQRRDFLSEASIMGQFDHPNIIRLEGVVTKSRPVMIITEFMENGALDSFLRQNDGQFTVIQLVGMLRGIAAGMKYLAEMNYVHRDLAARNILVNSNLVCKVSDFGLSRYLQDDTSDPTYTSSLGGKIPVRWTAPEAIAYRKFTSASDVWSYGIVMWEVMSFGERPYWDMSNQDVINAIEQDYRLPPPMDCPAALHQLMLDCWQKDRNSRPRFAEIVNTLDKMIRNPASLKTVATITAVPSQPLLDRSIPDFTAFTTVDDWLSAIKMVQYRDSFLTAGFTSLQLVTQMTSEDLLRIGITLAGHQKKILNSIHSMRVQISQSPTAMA

Sequence	phosphorylation enrichment [1]	phosphorylation enrichment [2]	phosphorylation enrichment [3]	phosphorylation enrichment [4]	phosphorylation enrichment [5]	phosphorylation enrichment [6]	phosphorylation enrichment [7]	phosphorylation enrichment [8]	phosphorylation enrichment [9]	phosphorylation enrichment [10]	phosphorylation enrichment [11]	phosphorylation enrichment [12]	phosphorylation enrichment [13]	SH2 binding enrichment [14]	SH2 binding enrichment [15]	SH2 binding enrichment [16]
FGRTFYNQANM [MCCC2_Y196_I200N]	0.939	0.786	0.509	0.433	0.695	0.51	1.06	0.377	0.503	0.994	0.411	0.842	0.493	0.706	0.556	0.497
FHKALYTVRTF [PDE6C_Y266_S270T_YF]	0.914	0.567	0.529	0.582	0.691	0.427	1.02	0.581	0.67	0.907	0.523	0.838	0.729	0.853	0.722	0.536
FIGCIYLYLTK [GARS1_Y414_R412C]	1.02	0.614	0.451	0.535	0.79	0.486	0.96	0.393	0.373	1.28	0.435	0.746	0.704	1.51	1.53	1.04
FIILIYAMKKK [SLCO1B1_Y645_YF]	0.323	0.179	0.385	0.509	0.377	0.354	0.583	0.321	0.465	0.447	1.35	0.51	0.32	1.83	1.66	0.965
FKGKKYKPLDL [RPL35_Y78_YF]	0.577	0.421	0.361	0.376	0.413	0.481	0.571	0.467	0.48	0.486	0.337	0.544	0.533	0.849	0.571	0.479
FKNGDYSEVMK [LCT_Y1638_N1639S]	0.697	0.859	0.877	0.57	0.468	0.362	0.709	0.42	0.413	0.686	0.433	0.429	0.574	1.11	0.739	1.84
FKRAVYCIIGR [NUP93_Y391_YF]	0.952	0.576	0.617	0.511	0.536	0.529	0.9	0.682	0.938	0.772	1.13	0.776	0.809	1.01	0.686	1.06
FLAVGDHKPHI [IDS_Y225_Y225D]	0.431	0.375	0.422	0.384	0.35	0.197	0.462	0.433	0.379	0.41	0.271	0.365	0.327	0.824	0.857	0.478
FLENFYDLKKD [MMP3_Y42_YF]	1.24	0.453	0.563	0.452	0.551	0.472	1.02	2.57	1.92	0.922	0.549	0.663	1.9	0.821	0.788	0.519
FLLRVYSIFSK [SGCE_Y38_T36R]	0.886	0.321	0.402	0.574	1.28	0.433	1.02	0.437	0.504	0.804	0.634	0.987	1.49	2.26	1.84	1.51
FLNSIYKCRDE [ROS1_Y2227_S2229C]	0.953	0.463	0.514	0.579	0.662	0.477	0.909	0.488	0.572	1.24	0.311	0.78	0.774	0.895	0.667	0.518
FRPPFYHRNCM [HGD_Y334_YF]	0.921	0.417	0.489	0.426	0.605	0.489	1.04	0.472	0.48	0.761	0.426	0.649	0.402	0.935	0.913	1
FRVAGYKTQGG [TIA1_Y383_E384K_YF]	0.533	0.379	0.468	0.417	0.468	0.273	0.624	0.668	0.401	0.558	0.436	0.686	0.342	0.825	0.678	0.489
FSLPAFMDRRD [COX4I1_Y38_Y38F]	0.947	0.396	0.456	0.473	0.537	0.455	0.81	0.458	0.41	0.807	0.4	0.497	0.459	1.02	1.03	0.639
FSTPPYLLEAA [BRIP1_Y921_S919P_YF]	0.95	0.521	0.601	0.63	0.707	0.579	1	0.619	0.434	0.909	0.497	0.76	0.669	0.952	0.655	0.607
FTFDPYSEEDP [IL2RB_Y387_YF]	1.08	0.694	0.642	0.61	0.698	0.686	1.23	0.839	0.562	1.17	0.426	0.772	1.18	1.09	0.823	0.651
FYLGAYDRFLP [SLC22A5_Y486_V481F]	1.37	0.938	2.06	0.712	0.831	1.22	1.28	2.4	3.38	1.11	4.1	0.829	3.62	1.18	1.37	1.16

Sequence	phosphorylation enrichment [1]	phosphorylation enrichment [2]	phosphorylation enrichment [3]	phosphorylation enrichment [4]	phosphorylation enrichment [5]	phosphorylation enrichment [6]	phosphorylation enrichment [7]	phosphorylation enrichment [8]	phosphorylation enrichment [9]	phosphorylation enrichment [10]	phosphorylation enrichment [11]	phosphorylation enrichment [12]	phosphorylation enrichment [13]	SH2 binding enrichment [14]	SH2 binding enrichment [15]	SH2 binding enrichment [16]
GADDSYFTARS [ZAP70_Y492_YF]	0.657	0.299	0.44	0.557	0.51	0.417	0.79	0.457	0.444	0.577	0.406	0.401	0.417	0.723	0.566	0.402
GANSEYIIAEK [ECHS1_Y35_F33S]	1.26	0.711	0.618	0.483	0.61	0.468	1.01	0.64	0.587	1.1	0.581	0.764	0.646	1	0.487	0.435
GARGRYIMGGP [TNK1_Y277_V278I]	0.433	0.39	0.462	0.789	0.4	0.4	0.547	0.433	0.428	0.531	0.468	0.512	0.522	0.811	0.674	0.606
GASRRYGSGVS [NEU1_Y242_W240R]	0.582	0.429	0.48	0.393	0.439	0.43	0.539	0.384	0.437	0.436	0.509	0.437	0.41	0.852	0.565	0.383
GDPTEYFITAI [IGSF22_Y501_S503I_YF]	1.55	0.584	0.644	1.07	1.11	0.404	1.08	0.445	0.461	1.31	0.482	0.911	0.555	0.786	0.467	0.499
GEDPIYVTLEG [RTKtide_2018]	1.81	5.64	6.76	4.71	3.4	3.86	1.47	5.05	3.44	1.2	2.29	1.7	3.9	0.906	0.485	0.718
GEYYRYLAEVA [YWHAG_Y133_D129E]	2.12	1.13	2.05	9.65	7.42	0.374	0.858	1.52	1.4	4.37	1.73	1.88	2.34	0.827	0.848	0.669
GFEEAYSVFKK [PAFAH1B1_Y28_YF]	0.803	0.339	0.379	0.423	0.412	0.365	0.696	1.29	2.51	0.514	0.544	0.756	3.97	1.03	1.76	0.605
GFEEAYSVSKK [PAFAH1B1_Y28_F31S_YF]	0.697	0.355	0.353	0.374	0.492	0.39	0.764	0.403	0.487	0.853	0.377	0.464	0.65	1.01	0.688	0.505
GFRVCYTPDSR [PTPRF_Y451_Y450C_YF]	1.26	0.513	0.512	0.472	0.691	0.548	1.34	0.397	0.507	1.01	0.419	0.777	0.451	0.787	0.687	0.444
GGGGGYNCSSG [FUS_Y232_R234C]	0.563	0.402	0.432	0.378	0.626	0.415	0.666	0.41	0.411	0.614	0.342	0.534	0.355	0.928	0.613	0.574
GGRKGYGDFSR [RECQL5_Y478]	0.416	0.412	0.354	0.345	0.363	0.352	0.622	0.334	0.33	0.422	0.425	0.944	0.418	1.15	0.798	0.674
GGSDCYGSLRP [MYLK_Y846_R845C]	0.703	0.466	0.508	0.351	0.566	0.558	0.887	2.79	3.08	0.792	0.429	0.746	2.75	0.694	0.608	0.36
GGYTCYSDGKK [PROS1_Y266_C267S]	1.13	0.677	0.561	0.592	0.826	0.593	1.22	0.458	0.499	1.01	0.441	0.908	0.516	0.677	0.745	0.555
GHEFIYVDRMQ [PDGFRB_Y581_P584R_YF]	0.777	0.47	0.685	0.555	0.624	0.382	0.836	1.42	1.11	0.541	0.479	0.651	2.02	0.92	0.741	0.399
GHLFAYDWIRI [BEST1_Y227_S231R_YF]	1	0.787	0.641	1.68	1.22	12.5	1.51	0.673	1.6	0.867	4.78	0.674	0.941	1.66	1.43	1.56

From the supplement of paper PMC10065799, “High-throughput profiling of sequence recognition by tyrosine kinases and SH2 domains using bacterial peptide display” (eLife, 2023)
